Tested on: Unphosphorylated Nox1 peptide (KLKTQKIYF, "LocKiT")

With PKC-βI (protein kinase C-βI) the “in vitro kinase assay, heat of phosphorylation measured by ITC; dot blot with p-STY antibody” value was “The slope of the reaction following the heat of dilution confirms that the Nox1 peptide is a substrate for PKC-βI”.
